Results published in patent publication US20050232926A1, “Antibodies specific for cancer associated antigen SM5-1 and uses thereof” (Oncomax Acquisition Corp., priority 2003, published 2005).

B1: humanized anti-SM5-1 antibody (ReSM5-1) (antibody, V domains shown)
VH: QVQLVQSGGGVVQPGRSLRLSCKASGYTFTSYVMHWVRQAPGKGLEWIGYIVPYNDGTKYNEKFKGRFTISSDKSKSTAFLQMDSLRPEDTAVYYCARGSRYDWYLDYWGQGTPVTVSS
VL: NIMMTQSPSSLSASVGDRVTITCKSSQSVLYSSNQKNYLAWYQQTPGKAPKLLIYWASTRESGVPSRFSGSGSGTDYTFTISSLQPEDIATYYCHQYFSSYTFGQGTKLQITR
B2: chSM5-1: mouse-human chimeric antibody with mSM5-1 variable regions (SEQ ID NO:3, 4) and human constant regions (antibody, V domains shown)
VH: EVQLQQSGPELVKPGASVKMSCKASGYTFTSYVMHWVKQKPGQGLDWIGYIVPYNDGTKYNEKFKGKATLTSDKSSSTAYMELSRLTSEDSAVYYCVYGSRYDWYLDVWGAGTTVTVSS
VL: NIMMTQSPSSLAVSAGEKVTMSCKSSQSVLYSSNQKNYLAWYQQKPGQSPKLLIYWASTRESGVPDRFTGSGSGTDFTLTISSVQAEDLAVYYCHQYFSSYTFGGGTKLEIKR
modifications: human constant regions; Mus Musculus

How the values were obtained:
QYC cells [1] = assay: In vitro proliferation of QYC cells with chimeric and humanized antibody (PMS:MTS, seven days); assay type: cell-based, human; conditions: serial antibody dilutions, FIG. 6
Description: The cell lines used in viability examination was QYC cells which were obtained from Shanghai International Joint Cancer Institute. The QYC cells was cultured in 25 cm^2 flask with RPMI-1640/DMEM (V:V=1:1, GIBCO) containing 10% FBS (GIBCO).
The above cells were digested with 0.05% trypsin and in 0.02% EDTA, and cell number was counted and adjusted to 6×10^4/ml in RPMI-1640/DMEM culture medium containing 10% FCS.
The assay was performed in 96-well plate. The anti-human SM5-1 humanized and chimeric antibody described above were diluted with RPMI-1640/DMEM containing 10% FCS. The antibody to be tested (20 mg/ml) was diluted to […] in serial dilution, with each dilution no more than 10-fold. The antibody were further diluted 1:2 serially with RPMI-1640/DMEM containing 10% FCS for fourteen serial concentrations in 96-well plate, leaving 100 μl/well. Cells (100 μl) were added into each well containing 200 μl various concentration of antibody or 200 μl of RPMI-1640/DMEM containing 10% FCS as control. In order to prevent edge effect of the plate, wells that were at the edge of the plate were not used for the assay but added 200 μl PBS. The plate was incubated at 37° C. with 7% CO2 for seven days.
Color developing reagent PMS:MTS (1:20) (20 μl) was added into each well of the 96-well plate. The plate without the lid was then incubated for 3 h.
The 96-well plate was read at OD490 nm. […]

QYC cells [2] = assay: Antibody-dependent cell mediated cytotoxicity (ADCC); assay type: cell-based, human; conditions: PBL effector to target ratio 20:1, 7 h, FIG. 7
Description: Venous blood was taken sterilely from healthy donor and put into sterile 15 ml centrifuge tube containing 20 U/ml heparin. The solution was carefully mixed and equal volume of sterilized PBS was added to dilute the blood.
In a 15 ml centrifuge tube, 6 ml room temperature pre-warmed 100% lymphocytes isolation fluid (obtained from CACS, Cellular Biology Institute) was added. Along the tube wall of the tilted tube, 6 ml diluted anti-coagulation peripheral blood was added slowly into the tube without damaging the interface.
The tube was centrifuged at 20° C., 800 g for 30 min with brake turned off. After the centrifuge, three layers were formed. The three layers (from above to the bottom) were blood plasma layer, cell separation liquid layer, red and granular cell layer. A white frosted glass-like layer between the plasma layer and cell separation liquid layer was the layer containing lymphocytes and mononuclear cells. This white layer was taken out using a pipette and put into another 15 ml sterile centrifuge tube. PBS was added into the centrifuge tube to dilute the PBL suspension and then centrifuged at 200 g for 5 min. The pellet was washed 2 times with PBS. […]
QYC cells at the logistically growing stage were taken out from incubator. […] Cells were counted, and the concentration was adjusted to 3×10^5/ml. […]
Cytotoxicity Detection Kit by Roche's Corporation was used. […] OD was read at 490 nm.

SM5-1 antigen = assay: Affinity determination with BIAcore; assay type: binding, human

Molecule	in vitro proliferation of QYC cells (QYC cells [1])	anti-neoplasm effect via ADCC (QYC cells [2])	Kd (SM5-1 antigen) [nM]
B1	significantly inhibited in vitro proliferation of QYC cells	induced the apoptosis and inhibit the growth of tumor cells through ADCC pathway	9.31
B2	significantly inhibited in vitro proliferation of QYC cells	induced the apoptosis and inhibit the growth of tumor cells through ADCC pathway	3.78
